Target: C5 (Homo sapiens, UniProt P01031)
Test: Monoclonal phage screening ELISA, human C5
Assay type: binding
Conditions: anti-C5 ultralong CDR-H3; binder = OD>0.2 AU
Procedure: For the C5 libraries, a single round of enrichment was performed with either human or rat C5 protein. […] Phage were blocked for 30 minutes. Biotinylated antigen was added to the blocked phage at a concentration of 100 nM and incubated at room temperature with mixing.
Colonies were picked into a 96-well culture plate containing selective medium 2TY supplemented with 1% Glucose and 100 μg/ml Carbenicillin and was incubated at 37° C. until wells reached mid-log phase of growth prior to addition of M13K07 helper phage. The block was incubated without shaking for 1 hour to achieve infection and phage production using continued culture in selective media supplemented with 50 μg/ml Kanamycin and 100 μg/ml Carbenicillin.
Binding to antigen was assessed by monoclonal phage ELISA, 96-well flat bottom Nunc MaxiSorp plates (Thermofisher) were coated with a 2.5 μg/ml solution of human, mouse, or rat serum albumin, human C5 or mouse C5 diluted with PBS, and left overnight at 4° C. Negative control plate and Anti-myc tag plate were also prepared.
Monoclonal phage rescue supernatants were blocked with an equal volume of a 2% milk (w/v) in PBS, for serum albumin proteins, or 2% BSA and 2% milk (w/v) in PBS solution. The coating solution was removed from coated Nunc plates and each plate was blocked with 1% BSA in PBS (for C5 libraries) or 1% milk powder (for albumin library). Both phage and Nunc plates were blocked for 1 hour at room temperature. Nunc plates were washed using a 96-well microplate washer (BioTek) with a PBS solution contain 0.1% Tween20 (Sigma Aldrich). 100 of blocked phage solution was added to each well of Nunc MaxiSorp plate and left shaking at room temperature for 1 hour. Plates were washed and dried as previously described. 100 of an Anti-M13-Horse radish peroxidase conjugated antibody (GE Healthcare) diluted (1:5,000) in a 1% BSA or milk solution was added to each well and left shaking at room temperature for 1 hour. Plates were washed again and 50 μL of TMB solution (Merck Millipore) was added to each well. Plates were left shaking for 10 minutes. Absorbance was measured at 630 nm and 490 nm. Binding signals were obtained where Absorbance at 630 nm was >3-times the signal upon irrelevant antigen.
By monoclonal phage ELISA the following ultralong CDR-H3 sequences were identified as binders (OD>0.2 AU): […]

C5, sequence (P01031 19-1676): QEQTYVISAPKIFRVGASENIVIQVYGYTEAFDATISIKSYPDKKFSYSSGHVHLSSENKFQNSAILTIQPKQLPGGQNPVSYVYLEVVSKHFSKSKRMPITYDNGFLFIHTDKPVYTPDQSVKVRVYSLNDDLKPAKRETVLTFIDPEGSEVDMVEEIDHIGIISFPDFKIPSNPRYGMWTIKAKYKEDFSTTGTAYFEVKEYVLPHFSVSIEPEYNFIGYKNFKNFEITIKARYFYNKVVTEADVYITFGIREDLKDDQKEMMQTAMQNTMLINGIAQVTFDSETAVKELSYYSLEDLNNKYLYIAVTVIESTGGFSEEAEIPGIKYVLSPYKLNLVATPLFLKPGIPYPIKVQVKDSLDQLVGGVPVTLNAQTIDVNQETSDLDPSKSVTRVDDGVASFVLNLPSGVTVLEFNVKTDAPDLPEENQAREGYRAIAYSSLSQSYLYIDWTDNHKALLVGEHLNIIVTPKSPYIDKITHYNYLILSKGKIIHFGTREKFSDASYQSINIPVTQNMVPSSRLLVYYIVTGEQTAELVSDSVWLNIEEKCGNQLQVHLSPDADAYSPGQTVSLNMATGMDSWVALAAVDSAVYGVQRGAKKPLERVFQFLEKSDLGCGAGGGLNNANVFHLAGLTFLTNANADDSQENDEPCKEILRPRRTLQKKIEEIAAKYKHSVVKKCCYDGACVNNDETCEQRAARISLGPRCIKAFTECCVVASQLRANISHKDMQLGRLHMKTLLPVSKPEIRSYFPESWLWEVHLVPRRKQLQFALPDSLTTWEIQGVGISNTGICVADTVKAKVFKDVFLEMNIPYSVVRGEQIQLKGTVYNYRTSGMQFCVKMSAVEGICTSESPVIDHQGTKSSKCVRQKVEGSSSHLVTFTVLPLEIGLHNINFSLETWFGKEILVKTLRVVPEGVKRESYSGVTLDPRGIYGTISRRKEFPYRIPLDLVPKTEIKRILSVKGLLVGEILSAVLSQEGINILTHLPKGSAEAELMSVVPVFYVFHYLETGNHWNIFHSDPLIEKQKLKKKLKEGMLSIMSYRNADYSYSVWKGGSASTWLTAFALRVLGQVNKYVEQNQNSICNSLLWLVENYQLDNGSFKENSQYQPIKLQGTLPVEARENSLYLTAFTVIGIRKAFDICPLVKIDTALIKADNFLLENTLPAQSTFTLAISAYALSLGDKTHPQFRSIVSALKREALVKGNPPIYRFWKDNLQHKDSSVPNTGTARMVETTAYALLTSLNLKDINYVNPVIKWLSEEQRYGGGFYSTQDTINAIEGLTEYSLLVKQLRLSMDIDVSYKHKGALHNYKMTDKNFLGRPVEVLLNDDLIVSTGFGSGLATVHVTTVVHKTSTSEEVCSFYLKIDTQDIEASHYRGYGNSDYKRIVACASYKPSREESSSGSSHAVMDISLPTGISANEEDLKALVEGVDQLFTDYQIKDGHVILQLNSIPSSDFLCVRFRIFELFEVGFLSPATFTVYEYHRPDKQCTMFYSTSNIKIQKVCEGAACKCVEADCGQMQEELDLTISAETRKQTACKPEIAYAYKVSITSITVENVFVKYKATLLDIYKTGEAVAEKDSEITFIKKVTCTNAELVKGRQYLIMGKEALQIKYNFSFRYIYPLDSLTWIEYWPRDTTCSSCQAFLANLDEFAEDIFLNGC

Specificity, Human:
541 (TTVHQRTIKSGCPPGYKSGVDCSPGSECKWGCYAVDGRRYGGYGADSGVGSTYTHEYHVE; Anti-C5 ultralong CDR-H3) [compound 541]
543 (TTVHQRTLKNRNCPDGYGYQRHCTVGEDCTDHCCDAYGLCTSYTYTYTYEWYVD; Anti-C5 ultralong CDR-H3) [compound 543]
544 (TTVHQRTLKNRNCPDGYGYQRHCTVGEDCTDSCCDRYGLCTTSTETYTYELYVE; Anti-C5 ultralong CDR-H3) [compound 544]
545 (TTVHQRTLKNRNRPEGYGYQRHCTVGEECTDSCCDRYGLCTTSTETYTYEWYVD; Anti-C5 ultralong CDR-H3) [compound 545]
546 (TTVHQRTKKTCPLGYDLNDRCDHFNTCRVEECCKNGVVNAYGICEYAGGSATYTYEWYVE; Anti-C5 ultralong CDR-H3) [compound 546]
547 (TTVHQRTLKNRNCPDGYGYQRHCTVGEDCTDSCCDRYGLCTTSTETYTYEFYVN; Anti-C5 ultralong CDR-H3) [compound 547]
548 (TTVHQRTLKNRNCPDGYGYQRHCTVGEDCTDSCCDRYGLCTTSTETYTYEWYVD; Anti-C5 ultralong CDR-H3) [compound 548]
549 (TTVHQRTLKNRNCPDGYGYQRHCTVGEDCTDSCCDRYGLCTTSTETYTYEWYVD; Anti-C5 ultralong CDR-H3) [compound 549]
550 (TTVHQRTLHNRNCPDGYGYQRHCTVGEDCTERCCDNYGLCTSYTDTYTYEFYVN; Anti-C5 ultralong CDR-H3) [compound 550]
559 (TTVHQRTAKRCPSNNEDATACRYSSVCGDYVCEGLSESYAQGWGACRRYACRDSYEWYVD; Anti-C5 ultralong CDR-H3) [compound 559]
560 (TTVHQRTAKRCPSNNEDATACRYSSVCGDYVCEGLSESYAQGWGACRRYACRDSYEWYVD; Anti-C5 ultralong CDR-H3) [compound 560]
561 (TTVHQQTNKRRQNCPDGYEYNGFCTPDGGCSRVSNWGWDRSCISPTYTYTYEWYVE; Anti-C5 ultralong CDR-H3) [compound 561]
562 (TTVHQQTTKKSSCPDGYCDCNGCGYGNGCSRGGCFDFRLYSGYSADIVVSTTYTHDFYID; Anti-C5 ultralong CDR-H3) [compound 562]
565 (TTVHQRTIKSGCPPGYKSGVDCSPGSECKWGCYAVDGRRYGGYGADSGVGSTYTHELYVE; Anti-C5 ultralong CDR-H3) [compound 565]
566 (TTVVQRTKRTCPEGLVYNSDQSRCCAADSGVCWEYWRGERVTRGFTYEWYVD; Anti-C5 ultralong CDR-H3) [compound 566]
567 (TTVHQRTTKRCPSNNEDATACRYSSVCGDYVCEGLSESYAQGWGACRRYACRDSYEWYVD; Anti-C5 ultralong CDR-H3) [compound 567]
569 (TTVHQRTAKRCPSNNEEATACRYSSVCGDYVCEGLSESYAQGWGACRRYACRDSYEWYVD; Anti-C5 ultralong CDR-H3) [compound 569]
570 (TTVHQRTIKSGCPPGYKSGVDCSPGSEYKWGCYAVDGRRYGGYGADSGVGSTYTHEFYVN; Anti-C5 ultralong CDR-H3) [compound 570]
571 (TTVHQRTIKSGCPPGYKSGVDCSPGSECKWGCYAVDGRRYGGYGADSGVGSTYTHEWYVD; Anti-C5 ultralong CDR-H3) [compound 571]

Same assay, conditions: knob domain of the anti-C5 ultralong CDR-H3

Specificity, Human:
579 (HCSPGSDCSWGCYDRDDRRVDGAGADSGLGSTST; Anti-C5 ultralong CDR-H3 knob domain) [compound 579]
580 (SCPDGYKDNRFCSPDGGCSAVSHWGWDSSCVS; Anti-C5 ultralong CDR-H3 knob domain) [compound 580]
581 (HCSPGSDCSWGCYDKDDRRVDGAGVASGLGST; Anti-C5 ultralong CDR-H3 knob domain) [compound 581]
582 (GCPPGYKSGVDCSPGSECKWGCYAVDGRRYGGYGADSGVGST; Anti-C5 ultralong CDR-H3 knob domain) [compound 582]
583 (SCPDGYHFIEPCHSGLCWREGACNGDGICANGLGRCRTVSETST; Anti-C5 ultralong CDR-H3 knob domain) [compound 583]
584 (GCPTGTVAGVHCSPGSDCSWGCYDKDDRRVDGAGAASGLGST; Anti-C5 ultralong CDR-H3 knob domain) [compound 584]
585 (RCPDGCFLSSYCPVGYACSGFACCDCGGYDYAGGVRGGRCSVRSTT; Anti-C5 ultralong CDR-H3 knob domain) [compound 585]
586 (NCPDGYKYNGFCTPDGGCSRVSSWGWDRSCISPT; Anti-C5 ultralong CDR-H3 knob domain) [compound 586]
587 (GCPPGTVAGVHCSPGSDCSWGCYDRDDRRVDGAGADSGLGSTST; Anti-C5 ultralong CDR-H3 knob domain) [compound 587]
588 (SCPDGYHFIEPCHSGLCWREGACNGDGICANGLGRCRTVSETST; Anti-C5 ultralong CDR-H3 knob domain) [compound 588]
589 (GCPTGTVAGVHCSPGSDCSWGCYDADDRRVDGYGADSGVGSP; Anti-C5 ultralong CDR-H3 knob domain) [compound 589]
590 (NCPDGYGYQRHCTVGEDCTDHCCDAYGLCTS; Anti-C5 ultralong CDR-H3 knob domain) [compound 590]
591 (NCPDGYGYQRHCTVGEDCTDSCCDRYGLCTTSTET; Anti-C5 ultralong CDR-H3 knob domain) [compound 591]
592 (HCTVGEECTDSCCDRYGLCTTSTET; Anti-C5 ultralong CDR-H3 knob domain) [compound 592]
593 (NCPDGYGYQRHCTVGEDCTERCCDNYGLCTSYTDT; Anti-C5 ultralong CDR-H3 knob domain) [compound 593]
600 (RCPSNNEDATACRYSSVCGDYVCEGLSESYAQGWGACRRYACRDS; Anti-C5 ultralong CDR-H3 knob domain) [compound 600]
601 (NCPDGYEYNGFCTPDGGCSRVSNWGWDRSCISPT; Anti-C5 ultralong CDR-H3 knob domain) [compound 601]
602 (SCPDGYCDCNGCGYGNGCSRGGCFDFRLYSGYSADIVVSTT; Anti-C5 ultralong CDR-H3 knob domain) [compound 602]
603 (SCPDGWGHSDDCNCACSANAYACCKRDWLLPGPSCECSTYCVS; Anti-C5 ultralong CDR-H3 knob domain) [compound 603]
604 (SCPDGWSDCHGSCDGVGCTGSDCVRYNARGYGRHACSG; Anti-C5 ultralong CDR-H3 knob domain) [compound 604]
605 (GCPPGYKSGVDCSPGSECKWGCYAVDGRRYGGYGADSGVGST; Anti-C5 ultralong CDR-H3 knob domain) [compound 605]
606 (TCPEGLVYNSDQSRCCAADSGVCWEYWRGERVTRGFT; Anti-C5 ultralong CDR-H3 knob domain) [compound 606]
607 (TCPDGYSYSEGCGKGDDCGGVHCCANGGVTCWYRHCCSTGTDT; Anti-C5 ultralong CDR-H3 knob domain) [compound 607]
608 (RCPSNNEEATACRYSSVCGDYVCEGLSESYAQGWGACRRYACRDS; Anti-C5 ultralong CDR-H3 knob domain) [compound 608]
609 (SGCPPGYKSGVDCSPGSEYKWGCYAVDGRRYGGYGADSGVGST; Anti-C5 ultralong CDR-H3 knob domain) [compound 609]

From patent US20240024520A1, “AUTONOMOUS KNOB DOMAIN PEPTIDES” (UCB BIOPHARMA SRL, priority 2020, published 2024)
